± gives the standard deviation of the averaged measurements.
Assay: total protein half-life in vivo (active degradation + dilution); higher = more stable protein
[1] = E. coli NCM3722 delta-clpP delta-lon delta-hslV, growth: N-lim chemostat, doubling time 6 h
[2] = E. coli NCM3722 delta-clpP, growth: N-lim chemostat, doubling time 6 h
[3] = E. coli NCM3722 delta-hslV, growth: N-lim chemostat, doubling time 6 h
[4] = E. coli NCM3722 delta-lon, growth: N-lim chemostat, doubling time 6 h
[5] = E. coli NCM3722 delta-smpB, growth: N-lim chemostat, doubling time 6 h
[6] = wild type E. coli NCM3722, growth: C-lim chemostat, doubling time 3 h
[7] = wild type E. coli NCM3722, growth: C-lim chemostat, doubling time 6 h
[8] = wild type E. coli NCM3722, growth: C-lim chemostat, doubling time 12 h
[9] = wild type E. coli NCM3722, growth: N-lim chemostat, doubling time 6 h
[10] = wild type E. coli NCM3722, growth: N-lim chemostat, doubling time 12 h
[11] = wild type E. coli NCM3722, growth: P-lim chemostat, doubling time 6 h
[12] = wild type E. coli NCM3722, growth: P-lim chemostat, doubling time 12 h

Sequence | total protein half-life in vivo [1] [h] | total protein half-life in vivo [2] [h] | total protein half-life in vivo [3] [h] | total protein half-life in vivo [4] [h] | total protein half-life in vivo [5] [h] | total protein half-life in vivo [6] [h] | total protein half-life in vivo [7] [h] | total protein half-life in vivo [8] [h] | total protein half-life in vivo [9] [h] | total protein half-life in vivo [10] [h] | total protein half-life in vivo [11] [h] | total protein half-life in vivo [12] [h]
MTGKKRSASSSRWLQEHFSDKYVQQAQKKGLRSRAWFKLDEIQQSDKLFKPGMTVVDLGAAPGGWSQYVVTQIGGKGRIIACDLLPMDPIVGVDFLQGDFRDELVMKALLERVGDSKVQVVMSDMAPNMSGTPAVDIPRAMYLVELALEMCRDVLAPGGSFVVKVFQGEGFDEYLREIRSLFTKVKVRKPDSSRARSREVYIVATGRKP [P0C0R7] | 5.17 ± 0.46 | 3.946 ± 0.035 | 4.42 ± 0.32 | 4.55 ± 0.18 | 4.52 ± 0.28 | 2.81 ± 0.034 | 5.87 ± 0.41 | 11.4 ± 1.5 | 4.45 ± 0.14 | 7.904 ± 0.057 | 5.13 ± 0.14 | 8.89 ± 0.018
MTHDNIDILVVDDDISHCTILQALLRGWGYNVALANSGRQALEQVREQVFDLVLCDVRMAEMDGIATLKEIKALNPAIPVLIMTAYSSVETAVEALKTGALDYLIKPLDFDNLQATLEKALAHTHSIDAETPAVTASQFGMVGKSPAMQHLLSEIALVAPSEATVLIHGDSGTGKELVARAIHASSARSEKPLVTLNCAALNESLLESELFGHEKGAFTGADKRREGRFVEADGGTLFLDEIGDISPMMQVRLLRAIQEREVQRVGSNQIISVDVRLIAATHRDLAAEVNAGRFRQDLYYRLNVVAIEVPSLRQRREDIPLLAGHFLQRFAERNRKAVKGFTPQAMDLLIHYDWPGNIRELENAVERAVVLLTGEYISERELPLAIASTPIPLGQSQDIQPLVEVEKEVILAALEKTGGNKTEAARQLGITRKTLLAKLSR | 5.51 ± 2.1 | 3.79 ± 0.11 | 2.98 ± 0.35 | 4.45 ± 1.4 | 2.79 ± 0.13 | 2.64 ± 0.3 | 3.94 ± 1.3 | 6.74 ± 1.1 | 2.89 | 4.34 ± 0.63 | 3.93 ± 0.27 | 7.36 ± 0.67
MTHDNKLQVEAIKRGTVIDHIPAQIGFKLLSLFKLTETDQRITIGLNLPSGEMGRKDLIKIENTFLSEDQVDQLALYAPQATVNRIDNYEVVGKSRPSLPERIDNVLVCPNSNCISHAEPVSSSFAVRKRANDIALKCKYCEKEFSHNVVLAN [P0A7F3] | 5.57 ± 0.82 | 4.6 ± 0.65 | 5.27 ± 1.8 | 4.92 ± 0.13 | 5.09 ± 0.11 | 3.33 ± 0.51 | 5.19 ± 0.14 | 9.106 ± 0.024 | 4.14 ± 0.12 | 7.28 ± 0.48 | 5.64 ± 0.66 | 12.2 ± 1
MTHKATEILTGKVMQKSVLITGCSSGIGLESALELKRQGFHVLAGCRKPDDVERMNSMGFTGVLIDLDSPESVDRAADEVIALTDNCLYGIFNNAGFGMYGPLSTISRAQMEQQFSANFFGAHQLTMRLLPAMLPHGEGRIVMTSSVMGLISTPGRGAYAASKYALEAWSDALRMELRHSGIKVSLIEPGPIRTRFTDNVNQTQSDKPVENPGIAARFTLGPEAVVDKVRHAFISEKPKMRYPVTLVTWAVMVLKRLLPGRVMDKILQG [P0AFP4] | 6.09 ± 0.25 | 6.01 ± 0.54 | 5.32 ± 1.6 | 6.02 ± 0.67 | 5.568 ± 0.03 | 3.07 ± 0.11 | 6.19 ± 0.11 | 13.6 ± 1.8 | 6.01 ± 0.4 | 11.9 ± 0.34 | 6.027 ± 0.025 | 10.4 ± 1.3
MTHLELVPVPPVAQLAGVSQHYGKTVALNNITLDIPARCMVGLIGPDGVGKSSLLSLISGARVIEQGNVMVLGGDMRDPKHRRDVCPRIAWMPQGLGKNLYHTLSVYENVDFFARLFGHDKAEREVRINELLTSTGLAPFRDRPAGKLSGGMKQKLGLCCALIHDPELLILDEPTTGVDPLSRSQFWDLIDSIRQRQSNMSVLVATAYMEEAERFDWLVAMNAGEVLATGSAEELRQQTQSATLEEAFINLLPQAQRQAHQAVVIPPYQPENAEIAIEARDLTMRFGSFVAVDHVNFRIPRGEIFGFLGSNGCGKSTTMKMLTGLLPASEGEAWLFGQPVDPKDIDTRRRVGYMSQAFSLYNELTVRQNLELHARLFHIPEAEIPARVAEMSERFKLNDVEDILPESLPLGIRQRLSLAVAVIHRPEMLILDEPTSGVDPVARDMFWQLMVDLSRQDKVTIFISTHFMNEAERCDRISLMHAGKVLASGTPQELVEKRGAASLEEAFIAYLQEAAGQSNEAEAPPVVHDTTHAPRQGFSLRRLFSYSRREALELRRDPVRSTLALMGTVILMLIMGYGISMDVENLRFAVLDRDQTVSSQAWTLNLSGSRYFIEQPPLTSYDELDRRMRAGDITVAIEIPPNFGRDIARGTPVELGVWIDGAMPSRAETVKGYVQAMHQSWLQDVASRQSTPASQSGLMNIETRYRYNPDVKSLPAIVPAVIPLLLMMIPSMLSALSVVREKELGSIINLYVTPTTRSEFLLGKQLPYIALGMLNFFLLCGLSVFVFGVPHKGSFLTLTLAALLYIIIATGMGLLISTFMKSQIAAIFGTAIITLIPATQFSGMIDPVASLEGPGRWIGEVYPTSHFLTIARGTFSKALDLTDLWQLFIPLLIAIPLVMGLSILLLKKQEG | 6.26 ± 0.63 | 5.83 ± 0.27 | 5.89 ± 0.12 | 6.1709 ± 0.0027 | 5.63 ± 0.1 | 3.42 ± 0.3 | 5.34 | 13.5 ± 0.33 | 5.19 ± 0.17 | 11.8 ± 0.13 | 6.42 ± 0.41 | 13 ± 1.4
MTIAIVIGTHGWAAEQLLKTAEMLLGEQENVGWIDFVPGENAETLIEKYNAQLAKLDTTKGVLFLVDTWGGSPFNAASRIVVDKEHYEVIAGVNIPMLVETLMARDDDPSFDELVALAVETGREGVKALKAKPVEKAAPAPAAAAPKAAPTPAKPMGPNDYMVIGLARIDDRLIHGQVATRWTKETNVSRIIVVSDEVAADTVRKTLLTQVAPPGVTAHVVDVAKMIRVYNNPKYAGERVMLLFTNPTDVERLVEGGVKITSVNVGGMAFRQGKTQVNNAVSVDEKDIEAFKKLNARGIELEVRKVSTDPKLKMMDLISKIDK | 6.3 ± 0.43 | 6.46 ± 1.2 | – | 6.12 ± 0.73 | 5.94 ± 0.051 | 3.14 ± 0.049 | 6.91 ± 0.14 | 13 ± 0.89 | 5.95 ± 0.48 | 12 ± 0.24 | 6.111 ± 0.044 | 14.3 ± 0.52

— the supplement of paper PMC11246515
